# Measurements as given in patent US6747136.
# Biological target: HCV E2 antigen (HCV genotype 1b) (hepatitis C virus genotype 1b)
binder,measurement,value
"Fab molecule clone 1:11 (Fab, V domains shown) VH: VQLLEQSGAEVKKPGSSVKVSCKASGGTFSGHVISWVRQAPGQGLEWMGGSISFFGTSNSAQKFQGRVSITADESASTAYMELSSLRSEDTAIYYCAKDPPRFCSGGNCYPGFFQQWGQGTLVTVSS VL: AELTQSPGTLSLSPGERATLSCGASQSVRSNYLAWYQQKPGQAPRLLIYGVSSRATGIPDRFSGSGSGTDFTLTISRLEPEDFAVYYCQQYGSSPRTFGQGTKLEIK",IC50,0.15 µg/mL
